Experimental data published in paper PMC5435312, “DNA recognition by an RNA-guided bacterial Argonaute”.

Biological target: T1, MpAgo D516A (Marinitoga piezophila, UniProt H2J4R4 1-639, D516A)
T1 sequence: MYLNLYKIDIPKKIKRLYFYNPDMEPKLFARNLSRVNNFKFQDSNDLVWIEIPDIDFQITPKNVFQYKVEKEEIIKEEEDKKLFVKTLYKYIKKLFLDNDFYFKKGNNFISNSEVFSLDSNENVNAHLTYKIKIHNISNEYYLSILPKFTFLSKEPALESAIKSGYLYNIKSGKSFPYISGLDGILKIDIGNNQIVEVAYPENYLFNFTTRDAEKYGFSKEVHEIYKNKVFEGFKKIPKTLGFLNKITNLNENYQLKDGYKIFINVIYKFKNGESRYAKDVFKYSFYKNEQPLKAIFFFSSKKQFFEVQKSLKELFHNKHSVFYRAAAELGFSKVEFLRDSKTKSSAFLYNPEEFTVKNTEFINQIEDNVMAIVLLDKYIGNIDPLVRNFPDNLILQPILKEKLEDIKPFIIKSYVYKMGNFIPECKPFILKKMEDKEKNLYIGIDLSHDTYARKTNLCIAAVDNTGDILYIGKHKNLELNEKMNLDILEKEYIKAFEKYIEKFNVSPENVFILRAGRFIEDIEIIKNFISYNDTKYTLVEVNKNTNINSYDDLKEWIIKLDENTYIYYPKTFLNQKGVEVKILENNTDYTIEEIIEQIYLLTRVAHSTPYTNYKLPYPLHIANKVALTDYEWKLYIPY
Assay: X-ray crystallography (3.2 A); 0.1 M MES pH 7.0, 275 mM KI, 27% PEG 4000; guide RNA 1.2x, target equimolar to guide; Crystallization: 0.1 M MES pH 7.0, 275 mM KI, 27% (w/v) PEG 4000, 18 C; protein about 3.5 mg/ml in complex; mismatch guides assayed by cleavage only (no binding read-out)
Conditions: protein: recombinant; tags: His10-Asn10-MBP tag removed by PreScission protease; 21 nt guide and 21 nt target, fully complementary; in the complex guide nt 1 and target C21 are unpaired, 20 bp modeled

B1: 21 nt RNA guide / 21 nt DNA target (DNA:RNA)
RNA: GGUACAACCUACUACCUCAUU
DNA: AATGAGGTAGTAGGTTGTACC
modifications: 5'-OH RNA guide; 5'-phosphate DNA target
  binding result: binds
